{"source": "patent US20210252040", "proteins": {"B1": {"name": "human glu-plasminogen (Haematologic technologies) (protein)", "chain": "KVYLSECKTGNGKNYRGTMSKTKNGITCQKWSSTSPHRPRFSPATHPSEGLEENYCRNPDNDPQGPWCYTTDPEKRYDYCDILECEEECMHCSGENYDGKISKTMSGLECQAWDSQSPHAHGYIPSKFPNKNLKKNYCRNPDRELRPWCFTTDPNKRWELCDIPRCTTPPPSSGPTYQCLKGTGENYRGNVAVTVSGHTCQHWSAQTPHTHNRTPENFPCKNLDENYCRNPDGKRAPWCHTTNSQVRWEYCKIPSCDSSPVSTEQLAPTAPPELTPVVQDCYHGDGQSYRGTSSTTTTGKKCQSWSSMTPHRHQKTPENYPNAGLTMNYCRNPDADKGPWCFTTDPSVRWEYCNLKKCSGTEASVVAPPPVVLLPDVETPSEEDCMFGNGKGYRGKRATTVTGTPCQDWAAQEPHRHSIFTPETNPRAGLEKNYCRNPDGDVGGPWCYTTNPRKLYDYCDVPQCAAPSFDCGKPQVEPKKCPGRVVGGCVAHPHSWPWQVSLRTRFGMHFCGGTLISPEWVLTAAHCLEKSPRPSSYKVILGAHQEVNLEPHVQEIEVSRLFLEPTRKDIALLKLSSPAVITDKVIPACLPSPNYVVADRTECFITGWGETQGTFGAGLLKEAQLPVIENKVCNRYEFLNGRVQSTELCAGHLAGGTDSCQGDSGGPLVCFEKDKYILQGVTSWGLGCARPNKPGVYVRVSRFVTWIEGVMRNN"}}, "target": "α-enolase of Enterococcus faecalis V583, surface-expressed", "data": [{"protein": "B1", "values": [{"measurement": "plasmin activity assay with enolase-blocking antibodies", "value": "The data is consistent with surface-expressed alpha-enolase being one of multiple PLG receptors on E. faecalis"}]}]}
